# Measurements: patent publication EP2954934A1 (3B Pharmaceuticals GmbH, dated 2015)
# pIC50: −log10 of the molar value.
# Legend:
# [1] = biological target: NTR1 on HT29 or NTR1-expressing HEK293 cells (UniProt P30989); test: cell-based or functional assay
# [2] = biological target: human neurotensin receptor 1 (NTR1) prepared from CHO cells recombinantly expressing the human receptor (human) (UniProt P30989); test: radioligand displacement, 125I-(Tyr3-neurotensin) on human NTR1 from CHO cells
# human neurotensin receptor 1 (NTR1) prepared from CHO cells recombinantly expressing the human receptor (human), sequence (P30989 whole entry): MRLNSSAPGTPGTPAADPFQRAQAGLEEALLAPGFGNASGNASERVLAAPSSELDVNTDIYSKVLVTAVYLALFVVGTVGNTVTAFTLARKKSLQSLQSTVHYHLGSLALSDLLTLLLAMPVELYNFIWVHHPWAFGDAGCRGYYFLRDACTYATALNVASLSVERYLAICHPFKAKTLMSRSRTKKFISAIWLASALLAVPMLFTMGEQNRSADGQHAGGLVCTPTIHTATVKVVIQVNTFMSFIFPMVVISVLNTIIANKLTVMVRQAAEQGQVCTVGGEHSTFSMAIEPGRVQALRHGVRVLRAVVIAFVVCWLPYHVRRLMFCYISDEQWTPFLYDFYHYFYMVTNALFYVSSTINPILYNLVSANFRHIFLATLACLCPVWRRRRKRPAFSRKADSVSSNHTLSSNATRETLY
# NTR1 on HT29 or NTR1-expressing HEK293 cells, sequence (P30989 whole entry): as above
Substance,Agonistic Effect EC50 [nM] (functional Ca2+ mobilisation assay) [1],Antagonistic Effect IC50 [nM] (functional Ca2+ mobilisation assay) [1],pIC50 [2]
1206-Glutar-Ttds-Lys(1206-Glutar-Ttds)-Ttds-Asn-Ala-Val-Pro-Asn-Leu-Arg-Gly-Asp-Leu-Gln-Val-Leu-Ala- (peptide),> 50000,12,8.12
1206-Glutar-Ttds3-Asn-Ala-Val-Pro-Asn-Leu-Arg-Gly-Asp-Leu-Gln-Val-Leu-Ala-Gln-Lys-Val-Ala-Arg-Thr-GA (peptide),> 50000,38,8.00
1206-Glutar-Ttds-Lys(DOTA)-Ttds-GABA-Asn-Ala-Val-Pro-Asn-Leu-Arg-Gly-Asp-Leu-Gln-Val-Leu-Ala-Gln-Lys (peptide),> 50000,18,8.00
